Experimental data reported in patent US20250109203A1.

target: human γδ TCR (Vγ9Vδ2) on human Vδ2+ γδ T cells (human) (UniProt A0JD36); assay: flow cytometry on expanded human Vδ2+ γδ T cells, nonlinear fit

Binder	Kd [nM]
hu1D7v66 VHH-hIgG1 Fc-NNT (monomeric) (VHH) VHH: EVQLLESGGGEVQPGGSLRLSCVASRGKISQYRMGWYRQAPGKERELVAHISNTGDAAEYVDTVKDRFTISRDSTKNALYLQMSSLRAEDTAVYKCNSVEDILAWGQGTLVTVRP	93.3
hu1D7v71 VHH-hIgG1 Fc-NNT (monomeric) (VHH) VHH: EVQLLESGGGEVQPGGSLRLSCVASRGKISQYRMGWYRQAPGKERELVAHISNTGDAAEYVDVVKDRFTISRDSTKNALYLQMSSLRAEDTAVYKCNSVEDILAWGQGTLVTVRP	135
hu1D7v78 VHH-hIgG1 Fc-NNT (monomeric) (VHH) VHH: EVQLLESGGGEVQPGGSLRLSCVASRGKISQYRMGWYRQAPGKERELVAHISNTGDAAEYVDSVKDRFTISRDSTKNALYLQMSSLRAEDTAVYKCNAVEDILAWGQGTLVTVRP	481
hu1D7v69 VHH-hIgG1 Fc-NNT (monomeric) (VHH) VHH: EVQLLESGGGEVQPGGSLRLSCVASRGKISQYRMGWYRQAPGKERELVAHISNTGDAAEYVDSVKDRFTISRDSTKNALYLQMSSLRAEDTAVYKCTSVEDILAWGQGTLVTVRP	1010
hu1D7v73 VHH-hIgG1 Fc-NNT (monomeric) (VHH) VHH: EVQLLESGGGEVQPGGSLRLSCVASRGKISQYRMGWYRQAPGKERELVAHISNTGDAAEYVDIVKDRFTISRDSTKNALYLQMSSLRAEDTAVYKCNSVEDILAWGQGTLVTVRP	180
hu1D7v6 VHH-hIgG1 Fc-NNT (monomeric) (VHH) VHH: EVQLLESGGGEVQPGGSLRLSCVASRGKFSQYRMGWYRQAPGKGLEWVAHISNTGDAAEYVDSVKGRFTISRDSTKNAVYLQMSSLRAEDTAVYKCNSVEDILAWGQGTLVTVKP	35.1
hu1D7v79 VHH-hIgG1 Fc-NNT (monomeric) (VHH) VHH: EVQLLESGGGEVQPGGSLRLSCVASRGKISQYRMGWYRQAPGKERELVAHISNTGDAAEYVDSVKDRFTISRDSTKNALYLQMSSLRAEDTAVYKCNLVEDILAWGQGTLVTVRP	497
hu1D7v70 VHH-hIgG1 Fc-NNT (monomeric) (VHH) VHH: EVQLLESGGGEVQPGGSLRLSCVASRGKISQYRMGWYRQAPGKERELVAHISNTGDAAEYVDSVKDRFTISRDSTKNALYLQMSSLRAEDTAVYKCESVEDILAWGQGTLVTVRP	441
hu1D7v74 VHH-hIgG1 Fc-NNT (monomeric) (VHH) VHH: EVQLLESGGGEVQPGGSLRLSCVASRGKISQYRMGWYRQAPGKERELVAHISNTGDAAEYVASVKDRFTISRDSTKNALYLQMSSLRAEDTAVYKCNSVEDILAWGQGTLVTVRP	60.4
hu1D7v80 VHH-hIgG1 Fc-NNT (monomeric) (VHH) VHH: EVQLLESGGGEVQPGGSLRLSCVASRGKISQYRMGWYRQAPGKERELVAHISNTGDAAEYVDSVKDRFTISRDSTKNALYLQMSSLRAEDTAVYKCNVVEDILAWGQGTLVTVRP	646
hu1D7v72 VHH-hIgG1 Fc-NNT (monomeric) (VHH) VHH: EVQLLESGGGEVQPGGSLRLSCVASRGKISQYRMGWYRQAPGKERELVAHISNTGDAAEYVDLVKDRFTISRDSTKNALYLQMSSLRAEDTAVYKCNSVEDILAWGQGTLVTVRP	182
hu1D7v76 VHH-hIgG1 Fc-NNT (monomeric) (VHH) VHH: EVQLLESGGGEVQPGGSLRLSCVASRGKISQYRMGWYRQAPGKERELVAHISNTGDAAEYVVSVKDRFTISRDSTKNALYLQMSSLRAEDTAVYKCNSVEDILAWGQGTLVTVRP	125
hu1D7v67 VHH-hIgG1 Fc-NNT (monomeric) (VHH) VHH: EVQLLESGGGEVQPGGSLRLSCVASRGKISQYRMGWYRQAPGKERELVAHISNTGDAAEYVDSVKDRFTISRDSTKNALYLQMSSLRAEDTAVYKCQSVEDILAWGQGTLVTVRP	1740
hu1D7v75 VHH-hIgG1 Fc-NNT (monomeric) (VHH) VHH: EVQLLESGGGEVQPGGSLRLSCVASRGKISQYRMGWYRQAPGKERELVAHISNTGDAAEYVGSVKDRFTISRDSTKNALYLQMSSLRAEDTAVYKCNSVEDILAWGQGTLVTVRP	118
hu1D7v8 VHH-hIgG1 Fc-NNT (monomeric) (VHH) VHH: EVQLLESGGGEVQPGGSLRLSCVASRGKISQYAMGWYRQAPGKGLEWVAHISNTGDAAEYVDSVKGRFTISRDSTKNAVYLQMSSLRAEDTAVYKCNSVEDILAWGQGTLVTVKP	7870

Other lines, results leading:

Kd [nM]	Binder
1950	hu1D7v89 VHH-hIgG1 Fc-NNT (monomeric) (VHH) VHH: EVQLLESGGGEVQPGGSLRLSCVASRGKISQYRMGWYRQAPGKERELVAHISNTGDAAEYVDSVKDRFTISRDSTKNALYLQMSSLRAEDTAVYKCQGVEDILAWGQGTLVTVRP
95.6	hu1D7v90 VHH-hIgG1 Fc-NNT (monomeric) (VHH) VHH: EVQLLESGGGEVQPGGSLRLSCVASRGKISQYRMGWYRQAPGKERELVAHISNTGDAAEYVDSVKDRFTISRDSTKNALYLQMSSLRAEDTAVYKCSGVEDILAWGQGTLVTVRP
43.6	hu1D7v84 VHH-hIgG1 Fc-NNT (monomeric) (VHH) VHH: EVQLLESGGGEVQPGGSLRLSCVASRGKISQYRMGWYRQAPGKERELVAHISNTGDAAEYVEGVKDRFTISRDSTKNALYLQMSSLRAEDTAVYKCNSVEDILAWGQGTLVTVRP
843	hu1D7v81 VHH-hIgG1 Fc-NNT (monomeric) (VHH) VHH: EVQLLESGGGEVQPGGSLRLSCVASRGKISQYRMGWYRQAPGKERELVAHISNTGDAAEYVDSVKDRFTISRDSTKNALYLQMSSLRAEDTAVYKCASVEDILAWGQGTLVTVRP
61.5	hu1D7v88 VHH-hIgG1 Fc-NNT (monomeric) (VHH) VHH: EVQLLESGGGEVQPGGSLRLSCVASRGKISQYRMGWYRQAPGKERELVAHISNTGDAAEYVQGVKDRFTISRDSTKNALYLQMSSLRAEDTAVYKCNSVEDILAWGQGTLVTVRP
44.9	hu1D7v87 VHH-hIgG1 Fc-NNT (monomeric) (VHH) VHH: EVQLLESGGGEVQPGGSLRLSCVASRGKISQYRMGWYRQAPGKERELVAHISNTGDAAEYVQSVKDRFTISRDSTKNALYLQMSSLRAEDTAVYKCNSVEDILAWGQGTLVTVRP
1090	hu1D7v93 VHH-hIgG1 Fc-NNT (monomeric) (VHH) VHH: EVQLLESGGGEVQPGGSLRLSCVASRGKISQYRMGWYRQAPGKERELVAHISNTGDAAEYVDSVKDRFTISRDSTKNALYLQMSSLRAEDTAVYKCNQVEDILAWGQGTLVTVRP
104	hu1D7v92 VHH-hIgG1 Fc-NNT (monomeric) (VHH) VHH: EVQLLESGGGEVQPGGSLRLSCVASRGKISQYRMGWYRQAPGKERELVAHISNTGDAAEYVDSVKDRFTISRDSTKNALYLQMSSLRAEDTAVYKCQNVEDILAWGQGTLVTVRP
154	hu1D7v91 VHH-hIgG1 Fc-NNT (monomeric) (VHH) VHH: EVQLLESGGGEVQPGGSLRLSCVASRGKISQYRMGWYRQAPGKERELVAHISNTGDAAEYVDSVKDRFTISRDSTKNALYLQMSSLRAEDTAVYKCGGVEDILAWGQGTLVTVRP
36.3	hu1D7v83 VHH-hIgG1 Fc-NNT (monomeric) (VHH) VHH: EVQLLESGGGEVQPGGSLRLSCVASRGKISQYRMGWYRQAPGKERELVAHISNTGDAAEYVDGVKDRFTISRDSTKNALYLQMSSLRAEDTAVYKCNSVEDILAWGQGTLVTVRP
